In experiment [1] the target is T1, cyclo(CGGTTEQGG) (SEQ ID NO: 2) (cyclic peptide: head to tail cyclization (amide condensation of the linear peptide)).
T1 construct: Coated on ELISA plates
T1 peptide: CGGTTEQGG
Put plainly: indirect ELISA, peptide coated 0.1 µg/well, neat hybridoma supernatant. The protocol:
(§1) ELISA plates were coated with 0.1 μg/well with peptide cyclo([…]) (SEQ ID NO: 2) or cyclo(CGTTEQG) (SEQ ID NO: 3) or the linear versions thereof at 100 μL/well in carbonate Coating Buffer (pH 9.6) overnight at 4 C. In other assays, cyclo([…]) (SEQ ID NO: 32) or cyclo (CGTTEGG) (SEQ ID NO: 29) were also used to coat the ELISA plates.
(§2) The plates were blocked with 3% skim milk powder in PBS for 1 hour at room temperature. The primary antibody, hybridoma tissue culture supernatant neat at 100 uL/well, was incubated for 1 hour at 37 C with shaking. The secondary antibody, goat anti-mouse IgGy-HRP at a 1:10,000 dilution was added at 100 uL/well in PBS-Tween and incubated for 1 hour at 37 C with shaking. All washing steps were performed for 30 mins with PBS-Tween. TMB Substrate was added at 50 uL/well, developed in the dark and stopped with equal volume 1M HCl. The development time was 1-2 min and the plate was read at 450 nm.

Another experiment concerns the target T2, Linear … (SEQ ID NO: 2).
T2 sequence (peptide): CGGTTEQGG
Described as above.

A further experiment addresses T3, BSA (bovine, UniProt P02769 25-607).
T3 construct: Carrier protein used as negative screening antigen; also called bovine serum albumin
Put plainly: screen of hybridoma supernatants.

Experiment [2] has as its target T4, TDP-43 in human spinal cord homogenates of sporadic ALS patients (human, UniProt Q13148 1-414, limits assumed).
T4 construct: Tissue homogenate dotted on PVDF; also called sALS samples; pathogenic TDP43 in spinal cord homogenates from ALS patients
Kind of experiment: dot blot of spinal cord homogenates on PVDF.

Experiment [3] addresses T5, Linear CGGTTEQGG (SEQ ID NO: 2).
T5 construct: Coated on ELISA plates; also called linear peptide
T5 peptide: CGGTTEQGG
Put plainly: indirect ELISA, peptide coated 0.1 µg/well, neat hybridoma supernatant. As for the experimental part:
as §1, §2

Four molecules from patent publication US20220162293A1 (UNIVERSITY OF BRITISH COLUMBIA, published 2022) can be followed below.

T3 sequence (P02769 25-607 limits assumed): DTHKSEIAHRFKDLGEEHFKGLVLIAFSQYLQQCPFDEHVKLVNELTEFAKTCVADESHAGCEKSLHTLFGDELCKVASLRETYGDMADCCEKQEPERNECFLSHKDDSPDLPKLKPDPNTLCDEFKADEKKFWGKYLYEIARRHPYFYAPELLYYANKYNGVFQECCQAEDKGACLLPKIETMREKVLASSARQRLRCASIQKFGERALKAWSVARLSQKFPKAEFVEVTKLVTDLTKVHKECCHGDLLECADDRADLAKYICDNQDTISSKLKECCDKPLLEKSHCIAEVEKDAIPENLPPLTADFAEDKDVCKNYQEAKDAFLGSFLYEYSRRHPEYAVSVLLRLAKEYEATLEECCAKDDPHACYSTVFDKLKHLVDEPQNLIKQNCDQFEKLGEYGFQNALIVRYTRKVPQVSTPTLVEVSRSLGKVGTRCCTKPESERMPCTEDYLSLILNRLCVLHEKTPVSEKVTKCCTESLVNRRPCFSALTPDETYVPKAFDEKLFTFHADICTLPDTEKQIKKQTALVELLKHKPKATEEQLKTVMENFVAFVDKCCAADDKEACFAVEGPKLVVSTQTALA
T4 sequence (Q13148 whole entry): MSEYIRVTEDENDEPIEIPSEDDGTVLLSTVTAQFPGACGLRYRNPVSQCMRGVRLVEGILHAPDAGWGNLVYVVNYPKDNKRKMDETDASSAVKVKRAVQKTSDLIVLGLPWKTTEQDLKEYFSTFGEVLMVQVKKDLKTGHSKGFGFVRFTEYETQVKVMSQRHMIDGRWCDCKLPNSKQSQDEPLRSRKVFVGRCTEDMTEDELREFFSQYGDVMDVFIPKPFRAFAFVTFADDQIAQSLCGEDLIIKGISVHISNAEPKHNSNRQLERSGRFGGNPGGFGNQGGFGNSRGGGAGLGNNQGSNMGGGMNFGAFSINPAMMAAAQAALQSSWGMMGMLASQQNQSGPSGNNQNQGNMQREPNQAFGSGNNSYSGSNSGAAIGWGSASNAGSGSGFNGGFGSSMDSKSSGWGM

B1: 3H5 (antibody, V domains shown)
VH: QIQLVQSGPELKKPGETVKISCKASGYTFTDYSMHWVKQAPGKGLKWMGWINTETGEPTYADDFKGRFAFSLETSASTAYLQINNLKNEDTATYFCASRRWYPYYFDYWGQGTTLTVSS
VL: QAVVTQESALTTSPGETVTLTCRSSTGAVTTSNYANWVQEKPDHLFTGLIGGPNNRAPGVPARFSGSLIGDKAALTITGAQTEDEAIYFCALWYSNHWVFGGGTKLTVL
notes: IgG1, lambda; also called clone 3H5; antibody 4
As for B1, the “ELISA signal (read at 450 nm)” value in experiment [1] was found to be 2.83 absorbance at 450 nm. The molecule also registered an ELISA signal (read at 450 nm) (absorbance at 450 nm) with Linear … (SEQ ID NO: 2) of 0.068. Further, the binding result in the experiment with BSA was “no binding”.

B2: 9C5 (antibody, V domains shown)
VH: EVQLVESGGGLVKPGGSLKLSCAASGFTFSDYYMYWVRQTPEKRLEWVATISDGGSYTSYPDSVKGRFTISRDNAKNNLYLQMSSLRSEDTAMYYCARDYYGSSSYTSGFAYWGQGTLVTVSA
VL: DVLMTQTPLSLPVSLGDQASISCRSSQSIVHSNGNTYLEWYLQKPGQSPKLLIYKVSNRFSGVPDRFSGSGSGTDFTLKISRVEAEDLGVYYCFQGSHVPGTFGGGTKLEIK
notes: IgG3, kappa; also called clone 9C5; antibody 6
As to B2, in experiment [1], the “ELISA signal (read at 450 nm)” value worked out at 2.29 absorbance at 450 nm. The same molecule gave an ELISA signal (read at 450 nm) (absorbance at 450 nm) with Linear … (SEQ ID NO: 2) of 0.115. For the same molecule, the binding result in the experiment with BSA is reported as “no binding”.

B3: 6C5 (antibody, V domains shown)
VH: EVKLVESGGGLVQPGGSLKLSCATSGFTFSDYYMYWVRQTPEKRLEWVAYISNGGGSTYYPDTVKGRFTISRDNAKNTLYLQMSRLKSEDTAMYYCAREGGTAWFAYWGQGTLVTVSA
VL: DVLMTQTPLSLPVSLGDQASISCRSSQSIVHSNGNTYLEWYLQKPGQSPKLLIYKVSNRFSGVPDRFSGSGSGTDFTLKISRVEAEDLGVYYCFQGSHVPYTFGGGTKLEIK
notes: IgG1, kappa; also called Antibody 6C5
Consider B3, for which the binding result in experiment [2] is reported as “binds”; in the experiment with BSA, “no binding”. Besides, the “ELISA signal (read at 450 nm)” value in experiment [3] stood at 0.191 absorbance at 450 nm; in experiment [1], 1.1 absorbance at 450 nm.

B4: 11F3 (antibody, V domains shown)
VH: QIQLVQSGPELKKPGETVKISCKASGYTFTDYSMHWVKHSPGKGLKWMGWINTETGEPTYADDFKGRFAFSLETSASTAYLQINNLKNEDTATYFCARGYGNWFAYWGQGTLVTVSA
VL: QIVLTQSPAIMSASLGERVTMTCTASSSVSSSYLHWYQQKPGSSPKLWIYSTSNLASGVPARFSGSGSGTSYSLTISSMEAEDAATYYCHQYHRSPLTFGAGTKLELK
notes: IgG1, kappa; also called clone 11F3; antibody 3
For the molecule B4, the “ELISA signal (read at 450 nm)” value in experiment [1] was 1.1 absorbance at 450 nm. In the experiment with Linear … (SEQ ID NO: 2), this molecule registered an ELISA signal (read at 450 nm) (absorbance at 450 nm) of 0.071. Moreover, the binding result with BSA was “no binding”.
